The numbers were not newly measured in article PMC9980337, which cites them from elsewhere.

pKd: −log10 of the molar value. Values joined by “and” are separate entries in the source; they are usually repeats but may differ in a detail not shown here. Identical values can stand only once.

In this data set the target is IL-18 (Homo sapiens) (UniProt Q14116).
Chain of IL-18 (Homo sapiens) (Q14116 37-193): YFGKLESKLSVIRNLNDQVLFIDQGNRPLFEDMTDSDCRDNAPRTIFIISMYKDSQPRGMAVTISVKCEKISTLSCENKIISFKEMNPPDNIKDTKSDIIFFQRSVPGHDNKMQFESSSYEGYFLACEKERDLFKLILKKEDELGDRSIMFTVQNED

Chain of IL-18BP (O95998 31-194): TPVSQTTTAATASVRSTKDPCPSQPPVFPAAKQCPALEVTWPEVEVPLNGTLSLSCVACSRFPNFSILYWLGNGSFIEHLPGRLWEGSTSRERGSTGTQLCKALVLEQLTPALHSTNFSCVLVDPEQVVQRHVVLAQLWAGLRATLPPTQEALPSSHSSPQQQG

Regarding IL-18BP (from UniProt O95998), the pKd was 9.40 and 10.30.
